According to the nanobody polyreactivity screen of Harvey et al. (2022):

Assay: yeast display, Sf9 membrane polyspecificity reagent, FACS + sequencing; frameworks hold sequencing errors
Summary of the method: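 Nanobodies from a synthetic yeast display library (Saccharomyces cerevisiae BJ5465), induced 36–48 hours with galactose, were stained 1 hour at 4 °C with 10% biotinylated, detergent-solubilized Sf9 membrane reagent, enriched on streptavidin microbeads, then FACS-sorted. Anti-HA (expression) and streptavidin (reagent binding) fluorescence set low and high (top ~1%) gates. Polyreactivity labels come from the gate of origin. Genes were colony-PCR amplified, MiSeq 2 × 250 sequenced and filtered by CDR length.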

Q: With “QVQLVESGGGLDQAGGSLRLSCAASGRTFAVYAMGWYIQAPGKERELVASIRLSGTRTYYADSVKGRFTISRDHAKNTVYFQMNSLKPEDTAVYYCAAKGTYSRGTFNGYRYDYWGQGTQVTVSS” as the sequence, how does the “polyreactivity (PSR sort gate)” value read?
A: high polyreactivity

Q: Which “polyreactivity (PSR sort gate)” value does the source give for “QVQLGESGGGLVQAGGSLRLSCAASGFIFFYYAMGRYRQAPGKERELVAVNTRGGSTYYADSVKGRFTISRDNAKNTVYLQMNSLKPVDTAVYYCAAGIFYYRYYQVDYWGQGTQVTVSS” here?
A: high polyreactivity

Q: For “QVQLVESGGGLVQAGGSLRLSCAASGSTIYRNAMVWYRQAPGKERELVAAISKSGGSTYYADTVKGRFTISRDNAKNTVYLQMNSQKPEDTAVYYCNSRYWVTTGGYWGQGTQVTVSS”, which “polyreactivity (PSR sort gate)” value is on record?
A: high polyreactivity

Q: Which “polyreactivity (PSR sort gate)” value does the source give for “QVQLVESGGGLVQAGGSLRLSCPASGSIFQYYAMGWYRQAPGKERELVAAISSGGRTNYADSVKGRFTISRDNAKNTVYLQMNSLKPEATAVYYCAAARYYYQVYRWEYDYWGQGTQVTVSS” here?
A: high polyreactivity

Q: Which “polyreactivity (PSR sort gate)” value does the source give for “QVQLVESGGGLVQAGGSLRLICPASGSTFQYYAMGWYRQAPGKEREFVAAIRSSGGTTYYADSVKGRFTISRDNAKKTVYLQMNSLKPEDTAVYYCATVVNYPSARYCYWGQGTKVTVSS” here?
A: high polyreactivity

Q: Which “polyreactivity (PSR sort gate)” value does the source give for “QVQLVESGGGLVQAGGSLRLSCAASGFTISAYAMGWYRQAPGKERQLVASISRGGITNYADSVKGRFTISRDNAKNTVYLQMTSLKPEETAVYYCAAETRNHGILYDYWGQGTQVTVSS” here?
A: high polyreactivity

Q: With “QVQLVESGGGLVQAGGSLRLICAASGRTFVYYAMGWYRQAPGKERELVAAISGGGSKTYADSVKGRFTISRDNAKYTVYLLMNSLKPEDTAVYYCGKSVWRRYYYWGQGNQVTVSS” as the sequence, how does the “polyreactivity (PSR sort gate)” value read?
A: high polyreactivity

Q: For “QVQLVESGGGLVQAGGSLRLSCAPSGRIFGTYAMGWYRQAPGKERELVASIRSRGGRTYYADSVKGRFTISRDNAKNTVYLQMNSLKPEDTAVYYCAADVGVYYYSFYYWGQGTQVTVSS”, which “polyreactivity (PSR sort gate)” value is on record?
A: high polyreactivity

Q: With “QVQLVESGGGLVQAGGSLRLSCAASGFTFLSNAMGWYRQAPGKERELVATINSGGSTNYADSVKGRFTISRDNAKNTVYLQMNSLKPEDTAVYYCAAKLWRYYHYDYWGQGTQVTVSS” as the sequence, how does the “polyreactivity (PSR sort gate)” value read?
A: low polyreactivity

Q: Which “polyreactivity (PSR sort gate)” value does the source give for “QDQLVESGGGLVQAGGSLRLSCAASAIIFYYYAMGSYRQAPGKERELVAAISSSGGRTRYADSVKGRVTISRDNAKNTVYLLMNRLKPEDTAVYYCAAEFIRGYGESYDYWGQGTQVTVSS” here?
A: low polyreactivity

Q: For “QVQLVESGGGLVQEGGSLRLSCASSGRIFDYYAMGWYRQAPGKESELVAAISSSVGNTYYADSVKGRFTISRDNAKNTVYFQMNRLKQEDTAVYYFADYSYVRSSYEVEYDYWGQGTQVTVSS”, which “polyreactivity (PSR sort gate)” value is on record?
A: low polyreactivity

Q: For “QVQLVESGGGLVQAGGSLRLSCAASGRTFGPYAMGWYRQAPGKERELVAVISGRGTSTYYADSVKGRFTISRDNAKNTVYLQMNSMKPEDTAVYYCNADYGSWYWGFDYWGQGTQVTVSS”, which “polyreactivity (PSR sort gate)” value is on record?
A: low polyreactivity

Q: For “QVQLVESGGGLDQAGGSLRLSCAASGIIFRWYAMGWYRQAPGKERELVAAITASGGSTYYADSVKGRFTISRDNAKNTVYLQMNSLKPEDTAVYYCNKLRLANIQTDGYYYWGQGTQVTVSS”, which “polyreactivity (PSR sort gate)” value is on record?
A: high polyreactivity

Q: Which “polyreactivity (PSR sort gate)” value does the source give for “QVQLVESGGGLVQAGGSLRLSCAASGRTFDPYAMGWYRQAPGKERELVAAITSGDDTYYADSVKGRFTISRDNAKNTVYLQMNSLKPEDTAVYYCAADSFTPDYYSHDYWGQGTQVTVSS” here?
A: low polyreactivity

Q: Which “polyreactivity (PSR sort gate)” value does the source give for “QVQLVESGGGLVQAGGSLRLICAASGRIFLGYAMGWYRKAPGKERELVAAITSSSGITYYADSVKGRFTISRDNAKNSVYLQMNSLKPEDTAVYYCAARASSGRRTKRYNYWGQGTKVTVSS” here?
A: low polyreactivity

Q: With “QVQLVESGGGLVQAGGSLRLSCAASGSISSAYAMGWYRQAPGKERELVAVITSGGSTNYADSVKGRFTISRDNAKNTVYLQMNSLKPEDTAVYYCNADTVAPLPYDYWGQGTQVTVSS” as the sequence, how does the “polyreactivity (PSR sort gate)” value read?
A: low polyreactivity

Q: With “QVQLVASGGGLVQAGGSLRISSAASGGIFPQYAMGWYRQAPGKERELVAAISRRGGSTYYADSVKGRFTISRDNAKNTVYLQMNSLKPEDTAVYFCNAGGSDYGVSNKYNSWGQGTQVTVSS” as the sequence, how does the “polyreactivity (PSR sort gate)” value read?
A: high polyreactivity

Q: For “QVQLVESGGGLVQAGGSLRLSCAASGRTFGPYAMGWYRQAPGKERELVAAISSSGSTTYYADSVKGRFTISRDNAKNTVYLQMNSLKPEDTAVYYCAKPSSRDSPYDYWGQGTQVTVSS”, which “polyreactivity (PSR sort gate)” value is on record?
A: low polyreactivity

Q: With “QVQLVESGGGLVQAGGSLRLSCAASGFTFRDYAMGWYRQAPGKEREFFADITFSGDNTRYADSVKGRFTISRDNAQNTVYLQMNSLKPEDTAVYYCNADRVVGPYDGYDYWGQGTQVTVSS” as the sequence, how does the “polyreactivity (PSR sort gate)” value read?
A: low polyreactivity

Q: With “QVQLVESGGGLVQAGGSLRLSCAASGRTFSRNAMGWYRQAPGKEREFVASISRSGTSTYYADSVKGRFTISRDNAKNTVYLHMNSLKPEDTAVYYCAKTYASSQGYDYWGLGTQVTVSS” as the sequence, how does the “polyreactivity (PSR sort gate)” value read?
A: high polyreactivity

Q: For “QVQLVESGGGLVQAGGSLRLSCAASGSIFVSEYVMGWYRQAPGKERELVARIRWSSGSTYYADSVKGRFTISRDNAKNTVYLQMNSLKPEDTAVYYCNKDYYYVIGWTYHRSYHYDYWGQGTQVTVSS”, which “polyreactivity (PSR sort gate)” value is on record?
A: low polyreactivity

Q: For “QVHHVESAGGLVQAGGILRLSCAASGRTFGANAMGWYRQPPVKERELVAAISKSGGRTYYADSVTGRFTISRDNAKNTVYLQMNSLKPEDTEVYYCNKVMCVSQAGGFDYWGQGTQVTVSS”, which “polyreactivity (PSR sort gate)” value is on record?
A: high polyreactivity

Q: With “QVQLVESGGGLVQAGGSLRLSCAASGSIFQYYAMGWYRQAPGKERELVAVISFSDGSTYYADSVKGRFTISRDNAKNTVYLQMNSLKPEDTAVYYCARRRFSVSRRSYYWGQGTQVTVSS” as the sequence, how does the “polyreactivity (PSR sort gate)” value read?
A: high polyreactivity

Q: Which “polyreactivity (PSR sort gate)” value does the source give for “QVQLVESGGGLVQAGGSLRLSCAASGFTLGRNAMGWYRQAPGKERELVASISGRGGSSYYADSVKGRFTISRDNAKNTVYLQMNSLKPEDTAVYYCAARGVSGKYYYWGQGTQVTVSS” here?
A: high polyreactivity

Q: With “QVQLVESGGGLVQAGGTLRLSCAASGYTLKWYTMGWYRQAPGKERELVATIRRGGGTYYADSVKGRFTISRDNAKNTVYLQMNSLKPVDTPVYYCAAEWSSVYNYDYWGQGTQVTVSS” as the sequence, how does the “polyreactivity (PSR sort gate)” value read?
A: low polyreactivity

Q: Which “polyreactivity (PSR sort gate)” value does the source give for “QVQLVESGGGLVQAGVSLRLSCPASGRTFGWYAMGWYRQAPGTERELVAAITSGTSTYYADSVKGRFTISRDNAKNTVYLQMNSLKPEDTAVYYCAVDRGISVGYTRFDYWGQGTQVSVSS” here?
A: low polyreactivity

Q: Which “polyreactivity (PSR sort gate)” value does the source give for “QVQLVESGGGLVQAGGSLRLSCAASGSTFTAYVMGWYRQAPGKERELVAAISRSGGRTYYADSVKGRFTISRDNAKNTVYLQMNSLKPEDTAVYYCAARSGPLAYDYWGQGTQVTVSS” here?
A: high polyreactivity

Q: For “QVQLVESGGGLVQAGGSLRLSCAASGSTFSDYVMGWYRQAPGKERELVAAISWSGDRTYYADSVKGRFTISRDNAKNTVYLQMNSLKPEETAVYYCAAEYAPSEPSYYYGYDYWGQGTQVTVSS”, which “polyreactivity (PSR sort gate)” value is on record?
A: high polyreactivity

Q: Which “polyreactivity (PSR sort gate)” value does the source give for “QLKLEESGGGLVQAGGSLRLSCAASGITFPWYAMGWYRQAPGKERELVAAINRAGNTNYADSVKGRFTISRDNAKNTVYLQRNSLKTEDTAVYYCAARWRYKYTLGYWGQGTQVTVSS” here?
A: high polyreactivity

Q: With “QVQLVESGGGLVQAGGSLRLSCAASGIIIRYYGMGWYRQAPGKERELVARIRWTGGSTYYADSVKGRFTISRDNAKNTVYLQMNSLKPEDTAVYYCNADPWWRFDYWGQGTQVTVSS” as the sequence, how does the “polyreactivity (PSR sort gate)” value read?
A: low polyreactivity

Q: For “QVQLVESGGGLVQAGGSLRLSCAASGSTFPTNAMGWYRPAPGKERELVATFTTGGSTYYADSVKGRFTISRDNAKNTVYLQMNSLKPVDTAVYYCNAEYVYLIFSVYLYDYDYWGQVTQVTVSS”, which “polyreactivity (PSR sort gate)” value is on record?
A: low polyreactivity

Q: Which “polyreactivity (PSR sort gate)” value does the source give for “QVQLVESGGGLVQAGGSLRLSCAASGFNSDWYAMGWSRQAPGKERELVATIDWIGGSTYADSVKGRFTISRDNAKNTVFLQMNSLKPEDTAVYYCAADSYFIAWYGAHYAYDYWGQGTQVTVSS” here?
A: low polyreactivity

Q: For “QVQLVESGGGLVQAGGSLRLSCAASGSIFYRYALGWYRQAPGKERELVAALSYSGGSTYYADSVKGRFTISRDNAKNTVYLQMNSLKPQETAVYYCANDSPPPISDYSRYYGYGYWGQGTQVTVSS”, which “polyreactivity (PSR sort gate)” value is on record?
A: low polyreactivity

Q: Which “polyreactivity (PSR sort gate)” value does the source give for “QVQLVESWGGLVQAGGSLRLSCSASGRTLRGYAMGWYRQAPGKERELVAAISKGGGSTFYADSVKGRFTISRDNAKNTVYLLMISLKPEDTAVYYCAARARYTRRGRHYDYWGQGTQVTVSS” here?
A: high polyreactivity

Q: With “QVQLVESGGGLVQAGGSLRLSCAASGFTFYWYDMGWYRQAPGKEWELVATMSPGGGTNYADSVKGRFTISRDNAKNTVSLQMNSLKPEDTSVYYCAADGSAGYQWGYDFEGDYWGQGTQLTVSS” as the sequence, how does the “polyreactivity (PSR sort gate)” value read?
A: high polyreactivity

Q: With “HVQLEESGVGLVQAGGSLRVSCAASGSTFGYYRMGGYRQAPGKERELVAAISWRGGSTYYADSVKGRFTISRDNAMNTVYCQMNSLKPEDTAVYYCAAPVGNYGSIDYWGQVTQVTVSS” as the sequence, how does the “polyreactivity (PSR sort gate)” value read?
A: low polyreactivity

Q: For “QVQLVESGGGLVQAGGSLRLSCAASGRILHRNAMGWYRQAPGKERELVSAIRSRGGGTYYADSVKGRFTISRDNAKNTVYLQMKSLKPEDTAVYYCNTDRSTRTVGPGLYGYWGQGTQVTVSS”, which “polyreactivity (PSR sort gate)” value is on record?
A: low polyreactivity

Q: For “QVQLVESGGGLVQAGGSLRLSCAASGSIFYLNAMGWYRQAPGKERELDAAIRWSGGSTRYADSVKGRFTISRDNAKNTVYLQMNSLKPEDTAVYYCAKYNPVLVYHWWYYYWGQGTQVTVSS”, which “polyreactivity (PSR sort gate)” value is on record?
A: high polyreactivity

Q: For “QVQLVESGGGLVQAGGSLRLSCAASGFTLIHYAMGWYRQAPGKERELVAGITTSGGSTYYADSVKGRFTISRDNAKNTGYLQMNSLKPEDTAVYYCNAEYRRRPKLGDEDEYWGQGTQVTVSS”, which “polyreactivity (PSR sort gate)” value is on record?
A: high polyreactivity

Q: For “QVQLVESGGGLVQAGGSLRLSCAASGFIFGLYAMGWYRQAPGKERELVAAISWSGGSTYYADSVKGRFTISRDNAKNTVYLQMNSLKPEDTAVYYCAKRGGYGYEYYYWGQGTQVTVSS”, which “polyreactivity (PSR sort gate)” value is on record?
A: high polyreactivity

Q: Which “polyreactivity (PSR sort gate)” value does the source give for “QVQLVESGGCLVQAGGSLRLSCAASGRTLHYYAMGWYIPAPGKVRELVARINWSGGSTYYADSVKGRFTISRDNAKKTVYLQMNSLKPEDTAVYYCAARKNRAYGYWGQGTQVTVSS” here?
A: high polyreactivity

Q: For “QVQLVESGGGLVQAGGSLRLSCAASGSIFRGYTMGWYRQAPGKERELVAAISRSGGSTYYADSVKGRFTISRDNAKNTVYLQMNSLKPEDTAVYYCNVVYFVTTSAGYDYWGQGTQVTVSS”, which “polyreactivity (PSR sort gate)” value is on record?
A: high polyreactivity

Q: With “QVQLVESGGGLVQAGGSLRLSCAASGYTFQKYGMGWYRQAPGNERELVAAITRSSGNTYYADSVKGRFTISRDNAKNTVYLQMNSLKPEDTAVDYCAAYYWGGVKYNYWGQGTQVTVSS” as the sequence, how does the “polyreactivity (PSR sort gate)” value read?
A: high polyreactivity
